These results are taken from publication doi:10.1101/2020.09.10.291369, “In vivo and in vitro mechanistic characterization of a clinically relevant PolγA mutation”.

The data set addresses T1, POLγA WT (UniProt P54099 26-1218).
T1 sequence: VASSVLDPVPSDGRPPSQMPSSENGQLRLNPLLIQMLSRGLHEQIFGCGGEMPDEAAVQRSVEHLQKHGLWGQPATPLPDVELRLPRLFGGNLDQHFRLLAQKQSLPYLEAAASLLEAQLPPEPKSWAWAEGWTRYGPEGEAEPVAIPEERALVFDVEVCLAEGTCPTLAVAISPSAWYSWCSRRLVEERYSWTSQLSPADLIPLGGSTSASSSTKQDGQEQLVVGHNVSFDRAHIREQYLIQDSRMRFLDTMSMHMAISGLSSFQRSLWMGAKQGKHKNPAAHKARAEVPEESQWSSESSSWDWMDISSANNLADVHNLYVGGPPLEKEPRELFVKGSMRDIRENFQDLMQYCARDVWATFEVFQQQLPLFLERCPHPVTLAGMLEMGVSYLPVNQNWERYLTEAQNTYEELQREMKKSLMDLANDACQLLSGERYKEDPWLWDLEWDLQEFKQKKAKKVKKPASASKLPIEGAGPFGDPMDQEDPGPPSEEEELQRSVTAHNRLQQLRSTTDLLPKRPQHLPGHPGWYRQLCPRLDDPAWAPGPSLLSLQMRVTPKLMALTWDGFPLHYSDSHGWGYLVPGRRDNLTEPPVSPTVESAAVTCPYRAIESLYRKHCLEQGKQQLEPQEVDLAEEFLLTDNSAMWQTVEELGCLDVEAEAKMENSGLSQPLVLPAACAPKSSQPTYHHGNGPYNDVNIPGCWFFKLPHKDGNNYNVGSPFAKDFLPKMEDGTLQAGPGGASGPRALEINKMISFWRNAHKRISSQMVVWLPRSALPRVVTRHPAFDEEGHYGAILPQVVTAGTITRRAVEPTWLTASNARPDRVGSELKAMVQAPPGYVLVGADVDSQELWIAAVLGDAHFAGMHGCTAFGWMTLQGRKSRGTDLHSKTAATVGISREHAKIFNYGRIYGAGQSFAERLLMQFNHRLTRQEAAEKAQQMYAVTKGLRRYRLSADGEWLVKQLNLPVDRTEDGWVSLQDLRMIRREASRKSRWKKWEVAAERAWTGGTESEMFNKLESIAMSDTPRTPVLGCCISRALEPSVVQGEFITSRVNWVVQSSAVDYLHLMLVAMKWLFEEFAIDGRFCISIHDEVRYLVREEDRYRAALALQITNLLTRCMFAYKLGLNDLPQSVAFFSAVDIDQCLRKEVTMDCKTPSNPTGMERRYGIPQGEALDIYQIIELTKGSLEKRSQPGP
Description: EMSA; POLγA alone; 10 mM MgCl2, ddGTP, dCTP, ATP; Kd in Suppl. Fig. 5A, value not in material; EMSA: 10 fmol DNA in 15 µl, 20 mM Tris-HCl pH 7.8, 1 mM DTT, 0.1 mg/ml BSA, 10 mM MgCl2, 10% glycerol, 2 mM ATP, 0.3 mM ddGTP, 3 mM dCTP, RT 10 min; 6% native PAGE 0.5x TBE. Particulars: protein: recombinant; label: 5'-32P on strand 2 (21-mer); 5' overhang 15 nt on strand 1; 21 bp duplex; primer-template. For orientation: A gel shift assay detects complexes by their altered migration in electrophoresis.

B1: 36-nt/21-nt primed template (mixed)
DNA 1: TTTTTTTTTTATCCGGGCTCCTCTAGACTCGACCGC
DNA 2: GCGGTCGAGTCTAGAGGAGCC
Turning to B1, the binding result is reported as “binds”.
